Results on 31 molecules are retold here after patent publication US20090208447A1 (MEDIGENE, published 2009).

Broadly, the Kd is a measure of binding affinity in units of concentration. Lower therefore signals tighter binding. The term koff denotes the rate constant with which the complex falls apart. Lower therefore signals a long-lived complex.

Where a chain is given by its changes, count along the chain named.

B1: SEQ ID NO 62 (receptor)
chain: MHLPKPTLWAEPGSVITMDQPVTLRCQGGQETQEYRLYREKKTAPWITRIPQELVKKGQFPIPSITWEHAGRYRCYYGSDTSQWSASSDPLELVVTGVYIKPTLSAQPSPVVNSGGNVTLQCDSQVAFDGFILCKEGEDEHPQCLNSQPHARGSSRAIFSVGPVSPSRRWWYRCYAYDSNSPYEWSLPSDLLELDVDG
B2: SEQ ID NO 64 (receptor)
chain: B1 chain with R49L, E140G, R173W
B3: SEQ ID NO 63 (receptor)
chain: B1 chain with W171R
B4: SEQ ID NO 60 (receptor)
chain: MGHLPKPTLWAEPGSVITMDQPVTLRCQGGQETQEYRLYREKKTAPWITRIPQELVKKGQFPIPSITWEHAGRYRCIGRSQTSQWSASSDPLELVVTGIYLAPTLSAQPSPVVNSGGNVTLQCDSQVAFDGFILCKEGEDEHPQCLNSQPHARGSSRAIFSVGPVSPSRRWWYRCYAYDSNSPYEWSLPSDLLELLVL
B5: SEQ ID NO 61 (receptor)
chain: B4 chain with M19L, D20G
B6: SEQ ID NO 33 (receptor)
chain: MGHLPKPTLWAEPGSVITMDQPVTLRCQGGQETQEYRLYREKKTAPWITRIPQELVKKGQFPIPSITWEHAGRYRCVIQRGTAGRSESSDPLELVVTGVYIKPTLSAQPSPVVNSGGNVTLQCDSQVAFDGFILCKEGEDEHPQCLNSQPHARGSSRAIFSVGPVSPSRRWWYRCYAYDSNSPYEWSLPSDLLELLVL
B7: SEQ ID NO 52 (receptor)
chain: MGHLPKPTLWAEPGSVITQGSPVTLRCQGGQETQEYRLYREKKTAPWITRIPQELVKKGQFPIPSITWEHAGRYRCYYGSDTAGRSESSDPLELVVTGIYQAPTLSAQPSPVVNSGGNVTLQCDSQVAFDGFILCKEGEDEHPQCLNSQPHARGSSRAIFSVGPVSPGRRWWYRCYAYDSNSPYEWSLPSDLLELLVL
B8: SEQ ID NO 48 (receptor)
chain: B6 chain with M19Q, D20G, Q21S, V77Q, I78G, Q79V, R80S, G81Q
B9: SEQ ID NO 56 (receptor)
chain: B7 chain with Q19M, G20D, S21Q, Q101L, G168S
B10: SEQ ID NO 35 (receptor)
chain: B7 chain with Q101R, A102Q, G168S
B11: SEQ ID NO 39 (receptor)
chain: B7 chain with S21A, I99V, Q101I, A102K
B12: SEQ ID NO 55 (receptor)
chain: B7 chain with A102K, G168S
B13: SEQ ID NO 50 (receptor)
chain: B7 chain with Q101K
B14: SEQ ID NO 34 (receptor)
chain: B6 chain with V77M, I78Q, Q79Y, R80T, G81L
B15: SEQ ID NO 57 (receptor)
chain: B7 chain with Q19L, S21Q, Q101L, G168S
B16: SEQ ID NO 38 (receptor)
chain: B7 chain with G168S
B17: SEQ ID NO 49 (receptor)
chain: B7 chain with W47Q, I99V, Q101V
B18: SEQ ID NO 41 (receptor)
chain: B7 chain with Q19V, S21Q, I99V, Q101I, A102K
B19: SEQ ID NO 42 (receptor)
chain: B7 chain with Q19L, S21Q, I99V, Q101I, A102K
B20: SEQ ID NO 54 (receptor)
chain: B7 chain with Q101K, A102Q
B21: SEQ ID NO 47 (receptor)
chain: B7 chain with S80G, D81Q, T82E, A83G, G84A, I99V, Q101I, A102K, G168S
B22: SEQ ID NO 58 (receptor)
chain: B4 chain with I77Y, G78Y, R79G, Q81D
B23: SEQ ID NO 37 (receptor)
chain: B7 chain with Q101K, G168S
B24: SEQ ID NO 40 (receptor)
chain: B7 chain with S21R, I99V, Q101I, A102K, G168S
B25: SEQ ID NO 53 (receptor)
chain: B7 chain with Q101L, A102Q
B26: SEQ ID NO 44 (receptor)
chain: B7 chain with I66V, I99V, Q101I, A102K, G168S
B27: SEQ ID NO 59 (receptor)
chain: B4 chain with M19L, D20G, I77Y, G78Y, R79G, Q81D
B28: SEQ ID NO 51 (receptor)
chain: B7 chain with A102R
B29: SEQ ID NO 36 (receptor)
chain: B7 chain with Q101L, G168S
B30: SEQ ID NO 45 (receptor)
chain: B6 chain with M19Q, D20G, Q21S, I78G, Q79W, R80A, G81V
B31: SEQ ID NO 43 (receptor)
chain: B7 chain with I99V, Q101I, A102K

The experiment addresses HLA-A*0201 loaded with the Carcinoembryonic antigen (CEA)-derived … peptide (biotinylated on the C-terminal biotinylation tag). The experiment in a line: SPR (Biacore), Example 4.
The molecule B1 came in with a Kd of no more than 1000 nM and a koff of no more than 2 s⁻¹.
Taken in the same sequence, the figures for B2 were no more than 1000 nM and no more than 2 s⁻¹.
Taken in the same sequence, the figures for B3 were no more than 1000 nM and no more than 2 s⁻¹.
In the same order, the values of B4 are no more than 1000 nM and no more than 2 s⁻¹.
Regarding B5, the Kd is no more than 1000 nM and the koff was no more than 2 s⁻¹.
In the same order, the values of B6 are no more than 1000 nM and no more than 2 s⁻¹.
Turning to B7, the Kd was no more than 1000 nM and the koff was no more than 2 s⁻¹.
In the same order, the values of B8 are no more than 1000 nM and no more than 2 s⁻¹.
B9 registered a Kd of no more than 1000 nM and a koff of no more than 2 s⁻¹.
In the same order, the values of B10 are no more than 1000 nM and no more than 2 s⁻¹.
The molecule B11 came in with a Kd of no more than 1000 nM and a koff of no more than 2 s⁻¹.
Taken in the same sequence, the figures for B12 were no more than 1000 nM and no more than 2 s⁻¹.
Taken in the same sequence, the figures for B13 were no more than 1000 nM and no more than 2 s⁻¹.
Taken in the same sequence, the figures for B14 were no more than 1000 nM and no more than 2 s⁻¹.
Regarding B15, the Kd is no more than 1000 nM and the koff was no more than 2 s⁻¹.
As for B16, the Kd is no more than 1000 nM and the koff was no more than 2 s⁻¹.
Take B17: the Kd was no more than 1000 nM and the koff is no more than 2 s⁻¹.
Taken in the same sequence, the figures for B18 were no more than 1000 nM and no more than 2 s⁻¹.
Taken in the same sequence, the figures for B19 were no more than 1000 nM and no more than 2 s⁻¹.
For B20, the Kd was no more than 1000 nM and the koff is no more than 2 s⁻¹.
Taken in the same sequence, the figures for B21 were no more than 1000 nM and no more than 2 s⁻¹.
Taken in the same sequence, the figures for B22 were no more than 1000 nM and no more than 2 s⁻¹.
Taken in the same sequence, the figures for B23 were no more than 1000 nM and no more than 2 s⁻¹.
Molecule B24 registered a Kd of no more than 1000 nM and a dissociation rate constant (koff) of no more than 2 s⁻¹.
In the same order, the values of B25 are no more than 1000 nM and no more than 2 s⁻¹.
In the same order, the values of B26 are no more than 1000 nM and no more than 2 s⁻¹.
Taken in the same sequence, the figures for B27 were no more than 1000 nM and no more than 2 s⁻¹.
B28: the Kd is no more than 1000 nM and the koff is no more than 2 s⁻¹.
With B29, the Kd was no more than 1000 nM and the koff was no more than 2 s⁻¹.
Taken in the same sequence, the figures for B30 were no more than 1000 nM and no more than 2 s⁻¹.
As to B31, the Kd was no more than 1000 nM and the koff was no more than 2 s⁻¹.
